Data published in patent US20220411504A1.

Assays:
[1] = biological target: human Kallikrein-2 6-His protein (soluble hK2) (human) (UniProt P20151); assay: SPR, antibody captured by anti-Fc, soluble hK2 injected
HLA-A on cells (human) = HLA-A on cells (human) (UniProt P04439); assay: flow cytometry, IgG1 mAb on cells expressing HLA-A
HLA-B on cells (human) = HLA-B on cells (human) (UniProt P01889); assay: flow cytometry, IgG1 mAb on cells expressing HLA-B
HLA-C on cells (human) = HLA-C on cells (human) (UniProt P10321); assay: flow cytometry, IgG1 mAb on cells expressing HLA-C

B1: KL2B359 (scFv-LH-Fc) (Fc fusion, not shown: a dimerising Fc or GST)
scFv: EIVLTQSPATLSLSPGERATLSCRASESVEYFGTSLMHWYQQKPGQPPRLLIYAASNVESGIPARFSGSGSGTDFTLTISSVEPEDFAVYFCQQTRKVPYTFGGGTKVEIKGGSEGKSSGSGSESKSTGGSQVQLQESGPGLVKPSQTLSLTCTVSGNSITSDYAWNWIRQFPGKRLEWIGYISYSGSTTYNPSLKSRVTISRDTSKNQFSLKLSSVTAADTAVYYCATGYYYGSGFWGQGTLVTVSS
A Kd [1] of 0.7 to 1 nM was found for B1 in this work.

B2: MHGB689 (antibody, human IgG1, kappa, V domains shown)
VH: QVQLQQSGPGLVKPSQTLSLTCVISGDSVSSNRAAWNWIRQSPSRGLEWLGRTYYRSKWYNDYAVSVKSRITINSDTSKNQISLQLNSVTPEDTAVYYCARVRPGIPFDYWGQGTTVTVSS
VL: DIQMTQSPDSLAVSLGERATINCESSQSVLFSSNKKNYLAWYQQKPGQPPKLLIYWASTRESGVPDRFSGSGSGTDFTLTINRLQAEDVAVYYCQQYNSTPWTFGQGTKVEIKR
A GeoMean fluorescence (maximum value) (HLA-A on cells (human)) of 2540, a GeoMean fluorescence (maximum value) (HLA-B on cells (human)) of 5790 and a GeoMean fluorescence (maximum value) (HLA-C on cells (human)) of 266 were found for B2 in this work.

B3: KL2B53 (antibody, human IgG4 S228P, kappa, F234A L235A, V domains shown)
VH: EVQLVESGGGVVQPGRSLRLSCVASGFTFSSYDIHWVRQAPGKGLEWVAIISYDGSKKDYTDSVKGRFTISRDNSKNTLYLQMDSLRVEDSAVYSCARESGWSHYYYYGMDVWGQGTMVTVSS
VL: DIVMTQSPSSLSASVGDRVTITCRASQDISNYLAWYQQKPGKVPKFLIYAASTLHSGVPSRFSGSGSGTDFTLTISSLQPEDVATYYCQKYNSAPYTFGQGTRLEIKR
A Kd [1] of 0.08 nM was found for B3 in this work.

B4: KL2B30 (antibody, human IgG4 S228P, kappa, F234A L235A, V domains shown)
VH: QVQLQESGPGLVKPSETLSLTCTVSGGSISSYYWSWIRQPPGKGLEWIGYIYYSGSTNYNPSLKSRVTISVDTSKNQFSLKLSSVTAADTAVYYCAGTTIFGVVTPNFYYGMDVWGQGTTVTVSS
VL: DIQMTQSPSFLSASVGDRVTITCRASQGISSYLAWYQQKPGKAPKFLIYAASTLQSGVPSRFSGSGSGTEFTLTISSLQPEDFATYYCQQLNSYPLTFGGGTKVEIKR
A Kd [1] of 0.46 nM was found for B4 in this work.

B5: KL2B413 (scFv-LH-Fc) (Fc fusion, not shown: a dimerising Fc or GST)
scFv: EIVLTQSPSFLSASVGDRVTITCRASQGISSYLSWYQQKPGKAPKLLIYATSTLQSGVPSRFSGSGSGTEFTLTISSLQPEDFATYYCQQLNSYPRTFGQGTKVEIKGGSEGKSSGSGSESKSTGGSEVQLVESGGGLVQPGGSLRLSCAASGFTFSSYWMTWVRQAPGKGLEWVANIKQDGSERYYVDSVKGRFTISRDNAKNSLYLQMNSLRAEDTAVYYCARDQNYDILTGHYGMDVWGQGTTVTVSS
A Kd [1] of 34.3 nM was found for B5 in this work.

B6: KL2B242 (antibody, human IgG4 S228P, lambda, F234A L235A, V domains shown)
VH: QVQLQESGPGLVKPSETLSLTCTVSGGSISSYYWSWLRQPAGSGLEWIGRLYVSGFTNYNPSLKSRVTLSLDPSRNQLSLKLSSVTAADTAVYYCAGDSGNYWGWFDPWGQGTLVTVSS
VL: SYELTQPPSVSVSPGETASITCSGDQLGENYACWYQQKPGQSPVLVIYQDSKRPSGIPERFSGSNSGNTATLTISGTQALDEADYYCQAWDNSIVVFGGGTKLTVLG
A Kd [1] of 0.04 nM was found for B6 in this work.
